# T1: SPD_0310 (Streptococcus pneumoniae, UniProt Q04MC1, E40A/R307A)
# T1 sequence (Q04MC1 1-494 E40A/R307A): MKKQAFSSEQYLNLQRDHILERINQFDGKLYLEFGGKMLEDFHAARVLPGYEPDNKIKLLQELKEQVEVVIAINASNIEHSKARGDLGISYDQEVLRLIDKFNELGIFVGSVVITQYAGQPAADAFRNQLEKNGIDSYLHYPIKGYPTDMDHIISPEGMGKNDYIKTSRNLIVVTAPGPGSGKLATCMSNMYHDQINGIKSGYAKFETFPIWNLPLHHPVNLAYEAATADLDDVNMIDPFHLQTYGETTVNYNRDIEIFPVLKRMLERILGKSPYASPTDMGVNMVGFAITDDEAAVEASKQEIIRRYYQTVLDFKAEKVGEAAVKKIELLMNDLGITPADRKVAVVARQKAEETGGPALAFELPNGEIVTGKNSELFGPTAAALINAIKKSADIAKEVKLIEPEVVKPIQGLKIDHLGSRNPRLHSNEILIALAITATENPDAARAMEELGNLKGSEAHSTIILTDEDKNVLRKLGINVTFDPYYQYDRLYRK
# T2: SPD_0310 (Streptococcus pneumoniae, UniProt Q04MC1, M38A/L39A/G88A/R97A)
# T2 sequence (Q04MC1 1-494 M38A/L39A/G88A/R97A): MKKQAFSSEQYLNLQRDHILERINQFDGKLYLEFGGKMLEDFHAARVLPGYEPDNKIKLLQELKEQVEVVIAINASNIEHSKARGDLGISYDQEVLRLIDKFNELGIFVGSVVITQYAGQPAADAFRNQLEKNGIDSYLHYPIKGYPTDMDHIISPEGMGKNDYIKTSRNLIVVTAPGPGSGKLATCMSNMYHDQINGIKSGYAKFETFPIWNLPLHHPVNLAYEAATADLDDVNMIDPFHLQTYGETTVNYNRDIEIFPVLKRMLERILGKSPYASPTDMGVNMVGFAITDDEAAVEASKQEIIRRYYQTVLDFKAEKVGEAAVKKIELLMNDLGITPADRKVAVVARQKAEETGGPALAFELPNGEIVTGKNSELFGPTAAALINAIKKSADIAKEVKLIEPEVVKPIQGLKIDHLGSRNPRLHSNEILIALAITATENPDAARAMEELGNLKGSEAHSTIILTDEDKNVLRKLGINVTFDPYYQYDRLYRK
# B1: SPD_0310 (natural protein)
# chain: MKKQAFSSEQYLNLQRDHILERINQFDGKLYLEFGGKMLEDFHAARVLPGYEPDNKIKLLQELKEQVEVVIAINASNIEHSKARGDLGISYDQEVLRLIDKFNELGIFVGSVVITQYAGQPAADAFRNQLEKNGIDSYLHYPIKGYPTDMDHIISPEGMGKNDYIKTSRNLIVVTAPGPGSGKLATCMSNMYHDQINGIKSGYAKFETFPIWNLPLHHPVNLAYEAATADLDDVNMIDPFHLQTYGETTVNYNRDIEIFPVLKRMLERILGKSPYASPTDMGVNMVGFAITDDEAAVEASKQEIIRRYYQTVLDFKAEKVGEAAVKKIELLMNDLGITPADRKVAVVARQKAEETGGPALAFELPNGEIVTGKNSELFGPTAAALINAIKKSADIAKEVKLIEPEVVKPIQGLKIDHLGSRNPRLHSNEILIALAITATENPDAARAMEELGNLKGSEAHSTIILTDEDKNVLRKLGINVTFDPYYQYDRLYRK
# notes: SPD_0310, hypothetical protein of the UPF0371 family, S. pneumoniae D39; spd_0310 gene cloned from genomic DNA into pGEX-4T-1 (BamH I/Sal I); Homotetramer by crystal structure and DLS; also called apo-0310; apo-SPD_0310
# Columns and labels:
# [1] = target: SPD_0310 (S. pneumoniae D39) (UniProt Q04MC1); assay: SPR; OpenSPR; SPD_0310 immobilised on a gold nanoparticle COOH sensor chip; analytes in 1× PBS, 30 μL/min; regeneration with 0.5 to ~10 mM HCl; 1:1 model
# [2] = target: T3, SPD_0310 (Streptococcus pneumoniae, UniProt Q04MC1); assay: SPR; also dialysis/ICP-MS, hemin-agarose pulldown, UV-Vis shift, CD thermal shift, stopped-flow fluorescence; assay type: binding
# T3 construct: recombinant SPD_0310 expressed from pGEX-4T-1, GST tag removed with thrombin; homotetramer
# [3] = target: T1, SPD_0310; assay: fluorescence quenching titration; assay type: binding
# [4] = target: T2, SPD_0310; assay: fluorescence quenching titration; assay type: binding
# [5] = target: B1; assay: SPR; OpenSPR; SPD_0310 immobilised on a gold nanoparticle COOH sensor chip; analytes in 1× PBS, 30 μL/min; regeneration with 0.5 to ~10 mM HCl; 1:1 model; conditions: both partners purified
# [6] = target: the molecule itself; assay: dynamic light scattering; fresh SPD_0310 in the native state, 3 μM in 1× PBS, 25°C
Molecule,Kd [5],also measured
bovine lactoferrin (natural protein),–,Kd [1]: 303 nM
C=CC1=C(C)C2=Cc3c(C=C)c(C)c4[n]3[Fe]([Cl])[n]3c(c(C)c(CCC(=O)O)c3=CC3=NC(=C4)C(C)=C3CCC(=O)O)=CC1=N2 [hemin],–,Kd [2]: 96.9 nM; % of WT binding constant [3]: 11 % of WT binding constant; % of WT binding constant [4]: 56 % of WT binding constant
"GAPDH (natural protein, S. pneumoniae D39, UniProt A0A0H2US80 1-335, looked up, GAPDH (Gap) of S. pneumoniae D39, recombinant; also called Gly-3-pho dehydrogenase; source: expressed and purified using the GST system) MVVKVGINGFGRIGRLAFRRIQNVEGVEVTRINDLTDPVMLAHLLKYDTTQGRFDGTVEVKEGGFEVNGKFIKVSAERDPEQIDWATDGVEIVLEATGFFAKKEAAEKHLKGGAKKVVITAPGGNDVKTVVFNTNHDVLDGTETVISGASCTTNCLAPMAKALQDNFGVVEGLMTTIHAYTGDQMILDGPHRGGDLRRARAGAANIVPNSTGAAKAIGLVIPELNGKLDGSAQRVPTPTGSVTELVAVLEKNVTVDEVNAAMKAASNESYGYTEDPIVSSDIVGMSYGSLFDATQTKVLDVDGKQLVKVVSWYDNEMSYTAQLVRTLEYFAKIAK",103 ± 1.29 nM,–
"SPD_0090 (natural protein, S. pneumoniae D39, UniProt A0A0H2ZQK8 1-491, looked up, source: expressed and purified using the GST system) CGNLTGNSKKAADSGDKPVIKMYQIGDKPDNLDELLANANKIIEEKVGAKLDIQYLGWGDYGKKMSVITSSGENYDIAFADNYIVNAQKGAYADLTELYKKEGKDLYKALDPAYIKGNTVNGKIYAVPVAANVASSQNFAFNGTLLAKYGIDISGVTSYETLEPVLKQIKEKAPDVVPFAIGKVFIPSDNFDYPVANGLPFVIDLEGDTTKVVNRYEVPRFKEHLKTLHKFYEAGYIPKDVATSDTSFDLQQDTWFVREETVGPADYGNSLLSRVANKDIQIKPITNFIKKNQTTQVANFVISNNSKNKEKSMEILNLLNTNPELLNGLVYGPEGKNWEKIEGKENRVRVLDGYKGNTHMGGWNTGNNWILYINENVTDQQIENSKKELAEAKESPALGFIFNTDNVKSEISAIANTMQQFDTAINTGTVDPDKAIPELMEKLKSEGAYEKVLNEMQKQYDEFLKNKK",3.41 ± 0.01 nM,–
"SPD_0226 (natural protein, SPD_0226, intracellular iron transporter of S. pneumoniae D39) MTVGLSYEDSAVKLLNDGANIKVVYPKEGTVFLPASAAIVKKSKNMENAKKFIDFIISQEVQDTLGTTTTNRPVRKNAKTSENMKPIDKIKTLTEDYDYVIKNKSDIVKKYNEVFTDIQSKQ",1070 ± 100 nM,–
B1,–,stoichiometry N [6]: 4
"SPD_0227 (natural protein, SPD_0227, intracellular iron transporter of S. pneumoniae D39) MNIEGYSDLLKPELKGKIATADPANSSSAFAQLTNMLQAQGGYKDDKAWSYVKDLFTLIDGIVK",420 ± 30 nM,–
"SPD_1609 (natural protein, S. pneumoniae D39, UniProt A0A0H2ZL87 1-355, looked up, source: expressed and purified using the GST system) CSGGSNSTTASSSEEKADKSQELVIYSNSVSNGRGDWLTAKAKEAGFNIKMVDIAGAQLADRVIAEKNNAVADMVFGIGAVDSNKIRDQKLLVQYKPKWLDKIDQSLSDKDNYYNPVIVQPLVLIGAPDVKEMPKDWTELGSKYKGKYSIYGLQGGTGRAILASILVRYLDEKGDLGVSEKGWEVAKEYFANAYTLQKGESSVVKALDKESPIQYGMIWGSGALIGQKEQNVEFKVMTPEIGVPFVTEQTMVLSTSKKQALAKEFIDWFGQSEIQVEYSKKFGSIPANKDALKELPEDTKKFVDQVKPQNIDWEAVGKHLDEWVEKAELEYVK",6.92 ± 0.08 nM,–

# From paper PMC9238395, “Identification and Tetramer Structure of Hemin-Binding Protein SPD_0310 Linked to Iron Homeostasis and Virulence of Streptococcus pneumoniae” (mSystems, 2022)
